In patent US20170022281A1 (AbbVie / Abbott, published 2017):
Residue numbers refer to the chain shown, from its start.

B1: chAb6 (antibody, human IgG1, kappa, V domains shown)
VH: QVQLQQPGAELVMPGSSVKLSCKASGYTFTTYWMHWVKQRPGQGLEWIGEIDPSDSYSNYNQKFKDKATLTVDKSSSTAYMQLSSLTSEDSAVYYCARNGGLGPAWFSYWGQGTLVTVSA
VL: DIVMTQSQKFMSTTVGDRVSITCKASQYVGTAVAWYQQKPGQSPKLLIYSASNRYTGVPDRFTDSGSGTDFTLTISNLQSEDLADYFCQQYSSYPWTFGGGTKLEIKT
notes: chimeric, murine variable and human G1/kappa constant regions
B2: Ab30 (antibody, human IgG1, kappa, V domains shown)
VH: EVQLVQSGAEVKKPGSSVKVSCKASGYTFTSFWMHWVRQAPGQGLEWIGVIDPSDTYTNYNQKFKGRATLTVDESSSTAYMELSSLRSEDTAVYYCARGDYSNWFTYWGQGTLVTVSS
VL: DVVMTQTPLSLSVTPGQPASISCRSSQRLVHSNGNTYLHWYLQKPGQSPQLLIYKVSNRFSGVPDRFSGSGSGTDFTLKISRVEAEDVGVYFCSQSTHVPWTFGGGTKVEIKR
notes: humanized from Ab5; G1; also called Ab2 HC.1a and Ab2 LC.1a
B3: Ab6 (antibody, V domains shown)
VH: B1 VH
VL: DIVMTQSQKFMSTTVGDRVSITCKASQYVGTAVAWYQQKPGQSPKLLIYSASNRYTGVPDRFTDSGSGTDFTLTISNLQSEDLADYFCQQYSSYPWTFGGGTKLEIK
notes: murine monoclonal, isotype G1; also called murine Ab6
B4: Ab12 (antibody, V domains shown)
VH: DVQLQESGPGLVKPSQSLSLTCTVTGYSITSDYAWNWIRQFPGNKLEWMGYIGYSGRTSFNPSLKSRISITRDTSKNQFFLQLNSVTTEDTATYYCARGGFAMDYWGQGTSVTVSS
VL: QIVLTQSPGIMSASPGEKVTMTCSASSSVTYMYWYQQKPRSSPKPWIYLTSNLASGVPARFSGSGSGTSYSLTISSMEAEDGATYYCQQWSSTPPLTFGGGTKLELN
notes: murine monoclonal, isotype G2a; reported as PRLR agonist; also called murine Ab12
B5: Ab10 (antibody, V domains shown)
VH: EVQLHQSGPELVKPGASVKISCKASGYTFTDYNMHWMKQSHGKSLEWIGYFYPYNGGTGYNQEFKNKATLTVDISSSTAYMELRRLTSEDSAVYYCARGGWGIYYAMDYWGQGTSVTVSS
VL: DIQMTQSPASLSASVGETVTITCRASENIYSYLTWYQQKQGKSPQLLVYNAKTLAEGVPSRFSGSGSGTQFSLKINSLQPEDFGSYHCQHHSVTPLTFGAGTKLELK
notes: murine monoclonal, isotype G2a; also called murine Ab10
B6: Ab5 (antibody, V domains shown)
VH: QVQLQQPGAELVRPGTSVKLSCKASGYTFTSFWMHWVKQRPGQGLEWIGVIDPSDTYTNYNQKFKGKATLTVDTSSSTAYMQLSSLTSEDSAVYYCARGDYSNWFTYWGQGTLVTVSA
VL: DVVMTQTPLSLPVSLGDQASISCRSSQRLVHSNGNTYLHWYLQKPGQSPKLLIYKVSNRFSGVPDRFSGSGSGTDFTLKISRVEAEDLGVYFCSQSTHVPWTFGGGTKLEIK
notes: murine monoclonal, isotype G2a; also called murine Ab5
B7: Ab11 (antibody, V domains shown)
VH: EVKLVESGGGLVQPGGSLKLSCAASGFTFSDYYMFWVRQTPEKSLEWVAYISNGGGSTYYPDTVKGRFTISRDNAKNTLYLQMSRLKSEDTAMYYCSRQLFYYGSRGAMGYWGQGTSVTVSS
VL: B6 VL with V3L, R28S, L29I, H39E, F92Y, S94F, S96G, T97S, W101F, G105S
notes: murine monoclonal, isotype G1; also called murine Ab11
B8: Ab7 (antibody, V domains shown)
VH: QVQLQQPGAELVMPGTSVKLSCKASGYTFTSYWIHWVKQRPGQGLEWIGEIDPSDSYTNYNQKFKGKATLTVDRSSSTAYMQLSSLTSEDSAVYYCGRSFFTNWFAYWGQGTLVTVSA
VL: B6 VL with R28S, S81N, W101F, G105S
notes: murine monoclonal, isotype G1; also called murine Ab7
B9: Ab13 (antibody, V domains shown)
VH: B6 VH with T56S, Y57H, D73N, Q82H
VL: B6 VL with L9F, R28S, G89E, V90L
notes: murine monoclonal, isotype G2a; also called murine Ab13

target: T1, human PRLR (Biacore antigen) (human, UniProt P16471 25-234, limits assumed); experiment: SPR simultaneous binding; PRLR held by surface mAb LFA102
T1 construct: The construct injected over captured antibody is not described (a soluble form is likely); also called huPRLR
T1 sequence: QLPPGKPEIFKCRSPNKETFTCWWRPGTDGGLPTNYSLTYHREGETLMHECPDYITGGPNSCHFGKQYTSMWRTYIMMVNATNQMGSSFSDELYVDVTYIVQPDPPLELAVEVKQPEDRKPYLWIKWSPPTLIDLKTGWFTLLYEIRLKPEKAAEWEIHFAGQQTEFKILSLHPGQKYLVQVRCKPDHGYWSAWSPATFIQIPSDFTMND
Method: (§1) Running buffer was HBS-EP+ (10 mM Hepes, pH7.4, 150 mM NaCl, 3 mM EDTA, 0.05% surfactant). Assay was performed at 12° C. using Biacore T200 and CM5 sensor chips with anti-human IgG (Pierce) amine-coupled in all 4 flow cells to ˜2000 RU.
(§2) Separate test mAbs were captured in flowcells 2, 3 & 4 (flowcell 1 was reference, no test mAb). All 4 flowcells were then blocked by injection with isotype control mAb at 50 ug/ml. All 4 flowcells were then injected with antigen or buffer only (buffer only is for double referencing, done for each mAb pair individually). All 4 flowcells were then injected with 2nd test mAb at 10 ug/ml. All 4 flowcells were then regenerated with glycine, pH1.5.

Binder | solution mAb binding, % of PRLR binding
B1 | 90%
B2 | 103%

target: T1, human PRLR (Biacore antigen); experiment: SPR simultaneous binding; PRLR held by surface mAb Ab39
Method: as §1, §2

Binder | solution mAb binding, % of PRLR binding
B1 | -2%
B2 | -2%

target: T1, human PRLR (Biacore antigen); experiment: SPR simultaneous binding; PRLR held by surface mAb Ab19
Method: as §1, §2

Binder | solution mAb binding, % of PRLR binding
B1 | -1%
B2 | -1%

target: T1, human PRLR (Biacore antigen); experiment: SPR simultaneous binding; PRLR held by surface mAb chAb5
Method: as §1, §2

Binder | solution mAb binding, % of PRLR binding
B1 | 0%
B2 | 0%

target: T1, human PRLR (Biacore antigen); experiment: SPR simultaneous binding; PRLR held by surface mAb chAb6
Method: as §1, §2

Binder | solution mAb binding, % of PRLR binding
B1 | -1%
B2 | -1%

target: T1, human PRLR (Biacore antigen); experiment: SPR simultaneous binding; PRLR held by surface mAb Ab21
Method: as §1, §2

Binder | solution mAb binding, % of PRLR binding
B1 | -1%
B2 | -1%

target: T1, human PRLR (Biacore antigen); experiment: SPR simultaneous binding; PRLR held by surface mAb chAb7
Method: as §1, §2

Binder | solution mAb binding, % of PRLR binding
B1 | 1%
B2 | 0%

target: T1, human PRLR (Biacore antigen); experiment: SPR simultaneous binding; PRLR held by surface mAb Ab40
Method: as §1, §2

Binder | solution mAb binding, % of PRLR binding
B1 | -2%
B2 | -2%

target: T2, mouse PRLR on Baf3-mPRLR cells (mouse, UniProt Q08501 20-608); experiment: cell-based or functional assay
T2 sequence (looked up): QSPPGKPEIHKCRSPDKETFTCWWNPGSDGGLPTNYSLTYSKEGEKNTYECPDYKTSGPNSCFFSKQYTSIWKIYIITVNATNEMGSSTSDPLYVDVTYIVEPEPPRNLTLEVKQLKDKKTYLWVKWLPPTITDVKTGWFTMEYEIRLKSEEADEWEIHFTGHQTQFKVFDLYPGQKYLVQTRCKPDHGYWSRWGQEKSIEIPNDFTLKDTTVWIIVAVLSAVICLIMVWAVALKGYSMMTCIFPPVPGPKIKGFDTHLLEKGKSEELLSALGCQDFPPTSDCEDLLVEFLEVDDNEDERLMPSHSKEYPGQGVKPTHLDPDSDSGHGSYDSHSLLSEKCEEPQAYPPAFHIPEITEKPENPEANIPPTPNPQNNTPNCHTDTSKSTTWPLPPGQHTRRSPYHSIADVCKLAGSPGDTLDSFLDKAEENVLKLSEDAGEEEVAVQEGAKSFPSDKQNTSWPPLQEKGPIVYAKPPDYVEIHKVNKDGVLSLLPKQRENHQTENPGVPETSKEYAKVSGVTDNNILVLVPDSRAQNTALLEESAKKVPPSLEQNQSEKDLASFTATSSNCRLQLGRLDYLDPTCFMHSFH

Binder | Baf3-mPRLR proliferation IC50
B3 | > 30 µg/mL
B4 | > 30 µg/mL
B5 | > 30 µg/mL
B6 | 1.03 µg/mL
B7 | 18.5 µg/mL
B8 | 3.55 µg/mL
B9 | 4.69 µg/mL

target: cyno PRLR on Baf3-cyPRLR cells (cyno); experiment: cell-based or functional assay

Binder | Baf3-cyPRLR proliferation IC50
B3 | 0.44 µg/mL
B1 | 12.2 µg/mL
B4 | > 30 µg/mL
B5 | > 10 µg/mL
B6 | 0.38 µg/mL
B7 | 1.2 µg/mL
B8 | 0.3 µg/mL
B9 | 0.85 µg/mL
B2 | 0.24 µg/mL

target: T3, human PRLR on cells (human, UniProt P16471 25-622); experiment: cell-based or functional assay
T3 sequence: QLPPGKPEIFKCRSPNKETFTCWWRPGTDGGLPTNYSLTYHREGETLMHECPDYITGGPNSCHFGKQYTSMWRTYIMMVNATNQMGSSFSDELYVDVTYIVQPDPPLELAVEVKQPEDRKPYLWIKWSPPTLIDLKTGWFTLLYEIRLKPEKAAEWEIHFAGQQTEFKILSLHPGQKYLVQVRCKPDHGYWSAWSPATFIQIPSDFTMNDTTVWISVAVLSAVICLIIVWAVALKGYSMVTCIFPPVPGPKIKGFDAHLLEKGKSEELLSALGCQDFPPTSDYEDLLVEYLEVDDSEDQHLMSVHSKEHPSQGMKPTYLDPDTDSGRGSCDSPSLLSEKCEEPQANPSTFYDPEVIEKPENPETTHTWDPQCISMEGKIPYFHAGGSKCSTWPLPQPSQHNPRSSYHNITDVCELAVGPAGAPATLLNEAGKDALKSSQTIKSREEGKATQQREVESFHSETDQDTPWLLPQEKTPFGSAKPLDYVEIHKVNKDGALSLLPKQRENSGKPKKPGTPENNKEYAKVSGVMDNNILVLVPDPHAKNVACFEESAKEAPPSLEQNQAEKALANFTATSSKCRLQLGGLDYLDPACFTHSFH

Binder | Baf3-hPRLR proliferation IC50 | T47D pPRLR ELISA IC50
B3 | 0.26 µg/mL | 0.039 µg/mL
B1 | 0.28 µg/mL | 
B4 |  | 0.538 µg/mL
B5 | 3.14 µg/mL | 0.362 µg/mL
B6 | 0.24 µg/mL | 0.038 µg/mL
B7 | 1.11 µg/mL | 0.047 µg/mL
B8 | 0.28 µg/mL | 0.08 µg/mL
B9 | 0.32 µg/mL | 0.047 µg/mL
B2 | 0.14 µg/mL | 

target: T1, human PRLR (Biacore antigen); experiment: SPR simultaneous binding; PRLR held by surface mAb chAb8
Method: as §1, §2

Binder | solution mAb binding, % of PRLR binding
B1 | 0%
B2 | 6%
